These are literature values, as cited in publication PMC7956452.

The data set has as its target RNA polymerase II CTD phosphorylated heptapeptide (Homo sapiens).

In the case of PQBP-1 (from UniProt O60828), the dissociation constant Kd was 154 µM.
